Measured values as given in US20120082663A1 (Genentech, published 2012).
Numbering of substitutions follows the chain as printed. Names may count otherwise.

Assays:
[1] = target: T1, human HGF receptor Fc fusion (HGFR-Fc) (human, UniProt P08581 25-929, limits assumed); experiment: SPR (Biacore), monovalent affinity, HGFR-Fc; murine 5D5, monovalent affinity
T1 construct: Generated and used as an Fc fusion; also called HFGR-Fc; b-HGFR-Fc (biotinylated)

[2] = target: T1, human HGF receptor Fc fusion (HGFR-Fc); experiment: SPR (BIAcore-2000), HGFR-Fc immobilised on a CM5 chip, 1:1 Langmuir fit
Procedure: (§1) Affinity determinations were performed by surface plasmon resonance using a BIAcore™-2000. HGFR-Fc was immobilized (˜1000 response units (RU)) on a CM5 chip and varied concentrations of Fab (4 to 500 nM) in PBST were injected. After each injection the chip was regenerated using 100 mM HCl. Binding response was corrected by subtracting the RU from a blank flow cell. A 1:1 Languir model of simultaneous fitting of kₒₙ and koff was used for kinetics analysis.

[3] = target: T2, cMet-Ig protein (biotinylated) (UniProt P08581 25-929, biotinylated with NHS-X-biotin); experiment: electrochemiluminescent competition assay in solution: inhibition of 2.5 nM HGF-Tag (ruthenium-labelled HGF) binding to 5 nM cMet-biotin; antibody titrated
T2 construct: Purified cMet-Ig produced at Genentech; also called cMet-Ig-biotin; not shown: Ig part not described
Procedure: (§2) Purified cMet-Ig protein produced at Genentech (South San Francisco, Calif.) was biotinylated by incubating with 20-fold molar excess NHS-X-Biotin in 0.1 M NaHCO3, pH 8.5 using biotin-X-NHS (Research Organics, Cleveland, Ohio). Purified human 2-chain HGF produced at Genentech was labeled with BV-TAG (cat #110034) via NHS-ester chemistry according to manufacturer's directions (BioVeris International, Gaithersburg, Md.). cMet-Ig-biotin (500 ng/mL), HGF-Ruthenium Tag (250 ng/mL), and titrations of OA5D5 antibody ranging from 3333-0.21 nM of antibody were incubated together in a volume of 100 ul of assay diluent: PBS ±0.5% BSA/0.5% Tween 20/0.033% Proclin (Supelco Inc. Bellefonte Pa.). The mixtures were incubated in sealed polypropylene round bottom 96 well plates (Corning) for 2-4 hours at room temperature with shaking Streptavidin magnetic beads (Dynabeads, BioVeris) were added. Following a final 45 min incubation with vigorous shaking, the plates were read using a BioVeris M-Series instrument (BioVeris International, Gaithersburg, Md.).

[4] = target: human c-Met on cells (BaF3-hMet transfected with full-length human c-Met cDNA; A549 and H358 cells) (human, UniProt P08581 25-1390); experiment: cell-based or functional assay
canine HGF receptor = canine HGF receptor (canine, UniProt Q75ZY9 25-935, limits assumed); experiment: cross-species binding test, method not described (data not shown)
[5] = target: murine (mouse) HGF receptor (murine (mouse), UniProt P16056 25-931, limits assumed); experiment: as above
[6] = target: T2, cMet-Ig protein (biotinylated); experiment: electrochemiluminescent competition assay: antibody (3333-0.21 nM) against HGF-Ruthenium Tag binding to cMet-Ig-biotin
Procedure: as §2

[7] = target: T1, human HGF receptor Fc fusion (HGFR-Fc); experiment: SPR (BIAcore-2000), Fab injected over immobilized HGFR-Fc; humanized clone (5D5 graft plus R94S) as Fab
Procedure: as §1
A library was generated in which each of the HVR regions of the 5D5 graft was soft randomized. This library was panned against immobilized HGFR-Fc for 4 rounds of selection. […] Analysis of this clone by phage ELISA indicated it had similar affinity to that of the monovalent affinity of murine 5D5. […] Thus this unexpected substitution restores full binding affinity to the 5D5 graft, and the 5D5 graft plus R94S (hu5D5.v1) represents a fully humanized antibody. […] MacCallum et al. (MacCallum et al. J. Mol. Biol. 262: 732-745 (1996)) have analyzed antibody and antigen complex crystal structures and found positions 93 and 94 of the heavy chain are part of the contact region thus it seems reasonable to include these positions in the definition of hypervariable region of H3 (HVR-H3) when humanizing antibodies.

[8] = target: T1, human HGF receptor Fc fusion (HGFR-Fc); experiment: SPR (BIAcore-2000), HGFR-Fc immobilised on a CM5 chip, Fab injected at 4 to 500 nM, 1:1 Langmuir fit
Procedure: as §1

[9] = target: T1, human HGF receptor Fc fusion (HGFR-Fc); experiment: SPR (Biacore), Fab over immobilized HGFR-Fc; reference hu5D5.v1
Procedure: as §1
Affinity maturation of hu5D5.v1 —To improve the affinity of hu5D5.v1, six phage display libraries were generated in the background of hu5D5.v1, each targeting a single HVR for soft randomization. To avoid re-selecting hu5D5.v1 from a potential high background of wild-type template, stop codons were introduced into the HVR to be mutated prior to generating each library. A solution sorting method was used to enhance the efficiency of the affinity-based phage selection process. By manipulating the biotinylated target concentration, reducing the phage capture time to lower backgrounds and the addition of unbiotinylated target to eliminate clones with faster off rates, high affinity clones can be proficiently selected. Lee et al., supra. […] After 4 rounds of selection, clones from each of the […] library pools were analyzed. […] Selected clones were screened by phage ELISA and then expressed as Fab protein and their affinity determined using Biacore. […]

[10] = target: T1, human HGF receptor Fc fusion (HGFR-Fc); experiment: SPR (BIAcore-2000), HGFR-Fc immobilised on a CM5 chip

B1: murine 5D5 anti-c-met antibody, monovalent form (Fab, V domains shown)
VH: QVQLQQSGPELVRPGASVKMSCRASGYTFTSYWLHWVKQRPGQGLEWIGMIDPSNSDTRFNPNFKDKATLNVDRSSNTAYMLLSSLTSADSAVYYCATYGSYVSPLDYWGQGTSVTVSS
VL: DIMMSQSPSSLTVSVGEKVTVSCKSSQSLLYTSSQKNYLAWYQQKPGQSPKLLIYWASTRESGVPDRFTGSGSGTDFTLTITSVKADDLAVYYCQQYYAYPWTFGGGTKLEIKR
notes: also called mu5D5; hybridoma 5D5.11.6 (ATCC HB-11895)
Kd [1]: 8.3 nM
koff [2]: 0.000743 s⁻¹
kon [2]: 89800 M⁻¹ s⁻¹

B2: chimeric one-armed 5D5 antibody (Fab arm from the murine parent 5D5 antibody fused to a human Fc region) (antibody, V domains shown)
VH: B1 VH
VL: B1 VL
notes: also called rchOA5D5; chimeric one-armed antibody
IC50 [3]: 2.6 nM

B3: OA-5D5.v2 one-armed anti-Met antibody (antibody)
light: DIQMTQSPSSLSASVGDRVTITCKSSQSLLYTSSQKNYLAWYQQKPGKAPKLLIYWASTRESGVPSRFSGSGSGTDFTLTISSLQPEDFATYYCQQYYAYPWTFGQGTKVEIKRTVAAPSVFIFPPSDEQLKSGTASVVCLLNNFYPREAKVQWKVDNALQSGNSQESVTEQDSKDSTYSLSSTLTLSKADYEKHKVYACEVTHQGLSSPVTKSFNRGEC
heavy: not shown
chain: not shown
notes: also called rhuOA5D5v2; one-armed 5D5.v2
inhibition of HGF receptor activation (KIRA, HGF-dependent Met phosphorylation in A549 cells); IC50 relative to comparator antibodies [4]: < 0.5 fold of the comparator's IC50
inhibition of cell proliferation in the presence of HGF (BaF3-hMet cells); IC50 relative to comparator antibodies [4]: < 0.5 fold of the comparator's IC50
binding result (canine HGF receptor): no binding
binding result [5]: no binding
IC50 relative to comparator antibody (chimeric one-armed antibody, OA-5D5.v1) [6]: < 0.5 fold of the comparator's IC50
IC50 [3]: 1 nM

B4: hu5D5.v1 (5D5 graft plus R94S), expressed as Fab (Fab, V domains shown)
VH: EVQLVESGGGLVQPGGSLRLSCAASGYTFTSYWLHWVRQAPGKGLEWVGMIDPSNSDTRFNPNFKDRFTISADTSKNTAYLQMNSLRAEDTAVYYCASYGSYVSPLDYWGQGTLVTVSS
VL: DIQMTQSPSSLSASVGDRVTITCKSSQSLLYTSSQKNYLAWYQQKPGKAPKLLIYWASTRESGVPSRFSGSGSGTDFTLTISSLQPEDFATYYCQQYYAYPWTFGQGTKVEIK
notes: Fab made in E. coli from the phage display vector (human CL and CH1); also called this clone
Kd [7]: 9.8 nM
koff [8]: 0.000507 s⁻¹
kon [8]: 51600 M⁻¹ s⁻¹

B5: hu5D5.v2 (clone 78), expressed as Fab (Fab, V domains shown)
VH: B4 VH with S98T, G100R, S104T
VL: DIQMTQSPSSLSASVGDRVTITCKSSQSLLYTSSQKNYLAWYQQKPGKAPKLLIYWASTRESGVPSRFSGSGSGTDFTLTISSLQPEDFATYYCQQYYAYPWTFGQGTKVEIKR
notes: Differs from hu5D5.v1 by 94T, 96R and 100T (Kabat, VH); Fab made in E. coli from the phage display vector (human CL and CH1)
fold affinity improvement (against hu5D5.v1) [9]: 13 fold
Kd [8]: 0.625 nM
koff [8]: 0.000147 s⁻¹
kon [8]: 236000 M⁻¹ s⁻¹

B6: OA-5D5.v1 one-armed anti-Met antibody (antibody, V domains shown)
VH: B4 VH
VL: B4 VL
notes: One-armed antibody named only as another antibody of the invention (OA-5D5.v1); Its constant domains and Fc polypeptides are not described; also called rhuOA5D5v1
IC50 [3]: 5.4 nM

B7: 5D5 graft (direct HVR-graft of murine 5D5 into the human acceptor framework), displayed as an Fab on phage (Fab, V domains shown)
VH: B4 VH with S98R
VL: B4 VL
notes: subgroup III VH with R71A, N73T, L78A; grafted L1 24-34, L2 50-56, L3 89-97, H1 26-35, H2 49-65, H3 95-102; R at 94); In the assay it was a monovalent Fab-g3 fusion on phage with human CL and CH1 of the vector; also called direct HVR-graft of 5D5
binding result [10]: no binding (tested: 500 nM)
